Experimental data reported in US20110076248A1 (MYRIAD GENETICS, published 2011).

Experiments:
[1] = target: T1, activation domain-Tsg101 construct (full-length Tsg101 in GADpN2: SV40NLS-GAL4 (768-881)-Tsg101) (human, UniProt P04386 768-881; Q99816 1-390); assay: cell-based or functional assay
T1 sequence: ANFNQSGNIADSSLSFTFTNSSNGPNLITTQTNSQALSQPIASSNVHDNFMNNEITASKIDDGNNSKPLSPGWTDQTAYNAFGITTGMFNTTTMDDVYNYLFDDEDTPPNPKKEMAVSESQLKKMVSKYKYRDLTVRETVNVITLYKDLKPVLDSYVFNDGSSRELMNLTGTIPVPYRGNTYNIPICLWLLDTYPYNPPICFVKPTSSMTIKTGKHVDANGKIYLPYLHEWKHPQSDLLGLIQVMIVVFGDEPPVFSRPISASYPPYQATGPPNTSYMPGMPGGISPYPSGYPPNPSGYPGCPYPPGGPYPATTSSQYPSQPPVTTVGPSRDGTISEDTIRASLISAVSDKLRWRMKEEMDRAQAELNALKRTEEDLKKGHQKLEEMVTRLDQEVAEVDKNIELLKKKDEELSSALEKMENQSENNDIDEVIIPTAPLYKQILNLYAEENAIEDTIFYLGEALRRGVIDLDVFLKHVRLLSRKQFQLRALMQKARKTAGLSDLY

[2] = target: T1, activation domain-Tsg101 construct …; assay: yeast two-hybrid, filter lift β-Gal assay

B1: binding domain-wild type p6gag construct (HIV1 p6 peptide of the HIV1.NL43 strain GAG protein in pGBT.Q) (other)
chain: LQSRPEPTAPPEESFRFGEETTTPSQKQEPIDKELYPLASLRSLFGSDPSSQ
- β-galactosidase activity in the two-hybrid liquid culture assay [1]: > 300 fold over background

B2: binding domain-mutant p6gag construct p6(P7L) (other)
chain: LQSRPELTAPPEESFRFGEETTTPSQKQEPIDKELYPLASLRSLFGSDPSSQ
notes: The mutation number counts on p6gag
- binding result [2]: no binding

B3: binding domain-mutant p6gag construct p6(A9R) (other)
chain: LQSRPEPTRPPEESFRFGEETTTPSQKQEPIDKELYPLASLRSLFGSDPSSQ
notes: as for B2
- binding result [2]: no binding

B4: binding domain-mutant p6gag construct p6(P10L) (other)
chain: LQSRPEPTALPEESFRFGEETTTPSQKQEPIDKELYPLASLRSLFGSDPSSQ
notes: as for B2
- binding result [2]: no binding
